In the supplement of paper PMC9170038:

Test system: MS2 coat protein
Assay: apparent KD of MS2 coat protein, switch ON state; designed switch direction (-1 OFF switch, 1 ON switch): 1; higher = weaker reporter binding
Settings: FMN input: 0 or 200 uM; Eterna round: R93 (includes R88 designs)
In short: (§1)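 With or without constant ligand, designed RNA switches in 100 mM Tris-HCl pH 7.5, 80 mM KCl and 4 mM MgCl2 were titrated with SNAP-549-labelled MS2 coat protein. Concentrations went up in twofold steps from 0.7 or 1.5 nM to 3 µM. The switches had been transcribed on-chip from Illumina sequencing clusters, and apparent KD is the per-design median of normalised cluster binding-curve fits.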

Sequence	apparent KD of MS2 coat protein [nM]
UUACGUACGUAUGAGGAUAUCCAUAAUAAGACAUGAGGAUCACCCAUGUAAACAAAACAAUAAUGGGAGAAGGCAUACGUACGAA [Mat - Same state - Malcolm Mod - D135]	23.2
AGAAAACAUGAGGAUCACCCAUGUAGAAAUAUGGGAGGAUAUACGAAGACGAAAGUCGAAGUAGAAGGCCUAAAGA [Mat - Same State 1 - Meechl mod - D126]	23.2
AAAAGACAUGAGGAUCACCCAUGUAAAAACAUAGGAGGAUAUGUCUGGAAACCAGACUGGACAGAAGGCCUUUGUC [SS1 - 63]	24.8
AGGAAACAUGAGGAUCACCCAUGUAAAAAUAUGGGAGGAUAUUGGAAUAAAAUAAAGAACCGAGAAGGCCUAAAAA [59%, Flamingo, 6]	32.3
AACAACAAUAUGAAGGAUAUCCACAACAAGACAUGAGGAUCACCCAUGUAAACAAAGAACAUACAGGAGAAGGUCAAGGGUGAAA [JR_SS002_Sub1203]	56.2
AAGAAACAUGAGGAUCACCCAUGUCAAGAGAGACAAGGAUAUCUGAAUUAAUUAAAUUAAGGAGAAGGUGUGAAAA [71%, Same state of confusion2, 1]	201
GGGUAAGAGAGAGAGGAUAUCCAAAGGAAAACAUGAGGAUCACCCAUGUAGAAGGUAGGAAAUUGGGAGAAGGCUCAAGAGAGAG [salish99-ss2-136]	29.8
GGGAGACAUGAGGAUCACCCAUGUGAGAAGAGGCGAGGAUAUCGAAAAAAAAAAAAAAAACGAGAAGGCGCGAGAG [salish99-SS1-005]	63.7
GGCUGCGAUGUGAAGGAUAUCCGCGACUGGACAUGAGGAUCACCCAUGUAUGCUUGGAACAUGCCGGAGAAGGUCACGAAUGAUU [JR_SS002_Sub1216]	18.7
AAGAUACAUGAGGAUCACCCAUGUCGAGAGAGACGAGGAUAUCUGAAUCGAUUAGAUUACGGAGAAGGCGUGAAAA [LROPPY Same State 1 - v07_deltaG=1.9]	19.4
UAAUAAUAAACCAAGGAUAUGGAGUUUCCAACAUGAGGAUCACCCAUGUUUUGCUUGUAAUCGAUCCAGAAGGUGGAGCCAAAUA [JR_SS002_Sub1006]	35.6
AUUUUACAUGAGGAUCACCCAUGUUUUGGUGGAUCAGGAUAUAGAUUGAAUGAGUUUUAGCUAGAAGGGAUAUAUA [JR_SS001_Sub506]	111
AAAUAACAUGAGGAUCACCCAUGUCAAAUAAAUCGAGGAUAUGGGCCCGGGUUCCGGAAGCCAGAAGGCGAAAAGA [Diareslera]	24.9
CGAAAGGAGAGAGAGGAUAUCCAAAGGAAAACAUGAGGAUCACCCAUGUAGAAGGUAGGAGAUUGGGAGAAGGCUCAAGAGAGAA [salish99-ss2-146]	19.1
AAAAAACAUGAGGAUCACCCAUGUCAAAAGACGUGAGGAUAUGUACAGACUUCGGUCUGUACAGAAGGCAUGAAAA [SS1 - 1056]	32
UAAAAACAUGAGGAUCACCCAUGUGAGAACAUGGGAGGAUAUACAAAGACGAAAGUCGAAGUAGAAGGCCUAAAAU [Mat - Same State 1 - Mod - D173]	178
AAAAAAUAAAAAAAGGAUAUAAUGCUACAGACAUGAGGAUCACCCAUGUAGGUAGCAUUAAUAAAAAAGAAGGAAAAAUAAAAAA [SS2: MS2 32]	9.09

Sequence	apparent KD of MS2 coat protein [nM]
AAAUAACAUGAGGAUCACCCAUGUUGCAACGGUUGAGGAUAUGUGGGUGAAAAUAGCAUGGCAGAAGGCGAGUGUA [SameState1 Malc#27]	58.1
CGUCUACAUGAGGAUCACCCAUGUCAAGAGUGGUCAGGAUAUGGUAUUAGAUGAGUAUGGCCAGAAGGGACAUAAG [JR_SS001_Sub715]	167
AAAACACAUGAGGAUCACCCAUGUAGAAAUACGGGAGGAUAUGCGAAAACGAAAGACAAAGUAGAAGGCCUAAAAG [saturn 8]	35.9
AAAAUAAAAUAAAAGGAUAUAAAAUAAAAAACAUGAGGAUCACCCAUGUAAAAACAUGGGUGAAAAAAGAAGGAAAAAUAAAAAA [SS2: 70 No MS2]	36.7
AAGCAACAUGAGGAUCACCCAUGUAGCAGGGUCAGAGGAUAUUUGAUCUUGGCAAGGGUUAAAGAAGGUUGAUAAA [Rianqu]	264
GAAAAACAUGAGGAUCACCCAUGUGAAAAUAUGGGAGGAUAUACAAGGACGAAAGUCAAGGUAGAAGGCCUAAAAG [Mat - Same State 1 - Eli mod - 27]	39.4
AGGAAACAUGAGGAUCACCCAUGUAAAAAUAUGGGAGGAUAUACAAACAAGAAAGUCAAAGUAGAAGGCCUAAAAG [Garnet 6]	63.7
AAAGACACGGUGCAGGAUAUAGUAAUAGUCACAUGAGGAUCACCCAUGUUCUUUUAUAAGAACGAUUAGAAGGGCGGUGAAAAAA [SameState2 Malc#10]	182
AGGAAACAUGAGGAUCACCCAUGUAAGAUAAACUUAGGAUAUGCGAAAAGAAACAAAGAAGCAGAAGGAGGGAGAA [75%, Ex5 sub 1, 2]	16.5
GGUACUACAGAUCAGGAUAUGUUUGGGUAAACAUGAGGAUCACCCAUGUGUGCCCGAUACACAGCACAGAAGGGAUAACGUGGGA [Ditia]	16.2
AAAAUACAUGAGGAUCACCCAUGUGAAAAUAUGGAAGGAUAUCAUGGAAAAAAAAAAACAUGAGAAGGUCCAAAAA [SS! 1 MT 9]	22
AAUAAACAUGAGGAUCACCCAUGUAAAUGGGUACAAGGAUAUGCGAAAAGAAACAAAGAAGCAGAAGGUGUAAAGA [Ex5 sub 2]	347
AAUAAACAUGAGGAUCACCCAUGUAGAAAUAUGGGAGGAUAUACAAAGACGAAAGUCAAAGUAGAAGGCCUAAUAU [Mat - Same State 1 - Mod - D154]	23.2
AUAAUAUUAAGCAAGGAUAUACUAAAGUAAACAUGAGGAUCACCCAUGUGAAAAAAAAAACUCAUGUAGAAGGUGCAUAAAUAAA [moonwalk 11]	23.9
AAUAAACAUGAGGAUCACCCAUGUAAAUGGGCGAUAGGAUAUGCGAAAAUAAAGAAAGAAGCAGAAGGAUCGAAGA [Ex5 sub 3]	224
ACAAGACAUGAGGAUCACCCAUGUAAAGAAAACGCAGGAUAUGCAAAAAAAUUCAUGGGUGCAGAAGGGCGAAAAA [Default title]	153

Test system: MS2 coat protein
Assay: apparent KD of MS2 coat protein, switch OFF state (with FMN for OFF switches, without FMN for ON switches); designed switch direction (-1 OFF switch, 1 ON switch): 1; higher = weaker reporter binding
Settings: FMN input: 0 or 200 uM; Eterna round: R93 (includes R88 designs)
In short: as §1

Sequence	apparent KD of MS2 coat protein [nM]
UUACGUACGUAUGAGGAUAUCCAUAAUAAGACAUGAGGAUCACCCAUGUAAACAAAACAAUAAUGGGAGAAGGCAUACGUACGAA [Mat - Same state - Malcolm Mod - D135]	47.3
AGAAAACAUGAGGAUCACCCAUGUAGAAAUAUGGGAGGAUAUACGAAGACGAAAGUCGAAGUAGAAGGCCUAAAGA [Mat - Same State 1 - Meechl mod - D126]	50.8
AAAAGACAUGAGGAUCACCCAUGUAAAAACAUAGGAGGAUAUGUCUGGAAACCAGACUGGACAGAAGGCCUUUGUC [SS1 - 63]	29.4
AGGAAACAUGAGGAUCACCCAUGUAAAAAUAUGGGAGGAUAUUGGAAUAAAAUAAAGAACCGAGAAGGCCUAAAAA [59%, Flamingo, 6]	219
AACAACAAUAUGAAGGAUAUCCACAACAAGACAUGAGGAUCACCCAUGUAAACAAAGAACAUACAGGAGAAGGUCAAGGGUGAAA [JR_SS002_Sub1203]	39
AAGAAACAUGAGGAUCACCCAUGUCAAGAGAGACAAGGAUAUCUGAAUUAAUUAAAUUAAGGAGAAGGUGUGAAAA [71%, Same state of confusion2, 1]	253
GGGUAAGAGAGAGAGGAUAUCCAAAGGAAAACAUGAGGAUCACCCAUGUAGAAGGUAGGAAAUUGGGAGAAGGCUCAAGAGAGAG [salish99-ss2-136]	29.7
GGGAGACAUGAGGAUCACCCAUGUGAGAAGAGGCGAGGAUAUCGAAAAAAAAAAAAAAAACGAGAAGGCGCGAGAG [salish99-SS1-005]	28.6
GGCUGCGAUGUGAAGGAUAUCCGCGACUGGACAUGAGGAUCACCCAUGUAUGCUUGGAACAUGCCGGAGAAGGUCACGAAUGAUU [JR_SS002_Sub1216]	30.2
AAGAUACAUGAGGAUCACCCAUGUCGAGAGAGACGAGGAUAUCUGAAUCGAUUAGAUUACGGAGAAGGCGUGAAAA [LROPPY Same State 1 - v07_deltaG=1.9]	34.3
UAAUAAUAAACCAAGGAUAUGGAGUUUCCAACAUGAGGAUCACCCAUGUUUUGCUUGUAAUCGAUCCAGAAGGUGGAGCCAAAUA [JR_SS002_Sub1006]	68.4
AUUUUACAUGAGGAUCACCCAUGUUUUGGUGGAUCAGGAUAUAGAUUGAAUGAGUUUUAGCUAGAAGGGAUAUAUA [JR_SS001_Sub506]	110
AAAUAACAUGAGGAUCACCCAUGUCAAAUAAAUCGAGGAUAUGGGCCCGGGUUCCGGAAGCCAGAAGGCGAAAAGA [Diareslera]	55.1
CGAAAGGAGAGAGAGGAUAUCCAAAGGAAAACAUGAGGAUCACCCAUGUAGAAGGUAGGAGAUUGGGAGAAGGCUCAAGAGAGAA [salish99-ss2-146]	25
AAAAAACAUGAGGAUCACCCAUGUCAAAAGACGUGAGGAUAUGUACAGACUUCGGUCUGUACAGAAGGCAUGAAAA [SS1 - 1056]	136
UAAAAACAUGAGGAUCACCCAUGUGAGAACAUGGGAGGAUAUACAAAGACGAAAGUCGAAGUAGAAGGCCUAAAAU [Mat - Same State 1 - Mod - D173]	25.7
AAAAAAUAAAAAAAGGAUAUAAUGCUACAGACAUGAGGAUCACCCAUGUAGGUAGCAUUAAUAAAAAAGAAGGAAAAAUAAAAAA [SS2: MS2 32]	15.3

Sequence	apparent KD of MS2 coat protein [nM]
AAAUAACAUGAGGAUCACCCAUGUUGCAACGGUUGAGGAUAUGUGGGUGAAAAUAGCAUGGCAGAAGGCGAGUGUA [SameState1 Malc#27]	31.9
CGUCUACAUGAGGAUCACCCAUGUCAAGAGUGGUCAGGAUAUGGUAUUAGAUGAGUAUGGCCAGAAGGGACAUAAG [JR_SS001_Sub715]	386
AAAACACAUGAGGAUCACCCAUGUAGAAAUACGGGAGGAUAUGCGAAAACGAAAGACAAAGUAGAAGGCCUAAAAG [saturn 8]	69.8
AAAAUAAAAUAAAAGGAUAUAAAAUAAAAAACAUGAGGAUCACCCAUGUAAAAACAUGGGUGAAAAAAGAAGGAAAAAUAAAAAA [SS2: 70 No MS2]	1.74
AAGCAACAUGAGGAUCACCCAUGUAGCAGGGUCAGAGGAUAUUUGAUCUUGGCAAGGGUUAAAGAAGGUUGAUAAA [Rianqu]	140
GAAAAACAUGAGGAUCACCCAUGUGAAAAUAUGGGAGGAUAUACAAGGACGAAAGUCAAGGUAGAAGGCCUAAAAG [Mat - Same State 1 - Eli mod - 27]	78.8
AGGAAACAUGAGGAUCACCCAUGUAAAAAUAUGGGAGGAUAUACAAACAAGAAAGUCAAAGUAGAAGGCCUAAAAG [Garnet 6]	152
AAAGACACGGUGCAGGAUAUAGUAAUAGUCACAUGAGGAUCACCCAUGUUCUUUUAUAAGAACGAUUAGAAGGGCGGUGAAAAAA [SameState2 Malc#10]	92.6
AGGAAACAUGAGGAUCACCCAUGUAAGAUAAACUUAGGAUAUGCGAAAAGAAACAAAGAAGCAGAAGGAGGGAGAA [75%, Ex5 sub 1, 2]	33
GGUACUACAGAUCAGGAUAUGUUUGGGUAAACAUGAGGAUCACCCAUGUGUGCCCGAUACACAGCACAGAAGGGAUAACGUGGGA [Ditia]	21.4
AAAAUACAUGAGGAUCACCCAUGUGAAAAUAUGGAAGGAUAUCAUGGAAAAAAAAAAACAUGAGAAGGUCCAAAAA [SS! 1 MT 9]	123
AAUAAACAUGAGGAUCACCCAUGUAAAUGGGUACAAGGAUAUGCGAAAAGAAACAAAGAAGCAGAAGGUGUAAAGA [Ex5 sub 2]	432
AAUAAACAUGAGGAUCACCCAUGUAGAAAUAUGGGAGGAUAUACAAAGACGAAAGUCAAAGUAGAAGGCCUAAUAU [Mat - Same State 1 - Mod - D154]	64.7
AUAAUAUUAAGCAAGGAUAUACUAAAGUAAACAUGAGGAUCACCCAUGUGAAAAAAAAAACUCAUGUAGAAGGUGCAUAAAUAAA [moonwalk 11]	50
AAUAAACAUGAGGAUCACCCAUGUAAAUGGGCGAUAGGAUAUGCGAAAAUAAAGAAAGAAGCAGAAGGAUCGAAGA [Ex5 sub 3]	51.9
ACAAGACAUGAGGAUCACCCAUGUAAAGAAAACGCAGGAUAUGCAAAAAAAUUCAUGGGUGCAGAAGGGCGAAAAA [Default title]	34.2
